Assay results: publication PMC10121563 (2023)
One block for each binder: values may come before it.

Molecular target: T1, GST::OsABI5 fusion protein (Oryza sativa subsp. japonica (Rice), UniProt Q8RZ35)
T1 chain: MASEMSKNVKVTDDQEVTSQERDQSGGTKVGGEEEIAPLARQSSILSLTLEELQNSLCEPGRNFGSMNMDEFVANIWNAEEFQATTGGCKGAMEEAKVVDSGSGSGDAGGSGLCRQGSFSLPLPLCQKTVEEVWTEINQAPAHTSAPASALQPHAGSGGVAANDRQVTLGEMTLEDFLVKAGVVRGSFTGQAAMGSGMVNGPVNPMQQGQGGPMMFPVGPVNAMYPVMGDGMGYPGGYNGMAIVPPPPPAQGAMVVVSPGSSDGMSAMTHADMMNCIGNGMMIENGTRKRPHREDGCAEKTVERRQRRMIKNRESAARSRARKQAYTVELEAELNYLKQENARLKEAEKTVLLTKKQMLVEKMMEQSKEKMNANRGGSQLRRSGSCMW
Assay: GST pull-down

binding result: binds
B1: MBP::OsJAZ7 fusion protein (protein)
chain: MAASARPVGVGGERATSFAMACSLLSRYVRQNGAAAAELGLGIRGEGEAPRAAPATMSLLPGEAERKKETMELFPQSAGFGQQDAITADSAADAREQEPEKRQLTIFYGGKVLVFNDFPADKAKGLMQLASKGSPVAPQNAAAPAPAAVTDNTKAPMAVPAPVSSLPTAQADAQKPARANASDMPIARKASLHRFLEKRKDRLNAKTPYQASPSDATPVKKEPESQPWLGLGPNAVVKPIERGQ

binding result: binds
B2: MBP::OsJAZ6 fusion protein (protein)
chain: MASAKSGERGSSSFAMACSLLSRYVRQNGAAAGELGLGIRGEADANKGKETMELFPQNSGFGSEAAAVKETPDAREQEKRQLTIFYGGKVLVFDDFPAEKAKDLMQMASKSSSTAQNCVLLPSSATATVADNTKVSAVPAPASALPVAQANAPKPVRPNAADLPQARKASLHRFLEKRKDRLQAKAPYQGSPSDASPVKKELQESQPWLGLGPQVAAPDLSLRQESSQ
